Results from paper PMC2964404.

Molecular target: Staphylococcus aureus enterotoxin C3, wild type (Staphylococcus aureus) (UniProt P0A0L5)
Assay: ITC

Question: With “variable domain of the murine T cell receptor (TCR) β chain 8.2 (domain or fragment)” as the substance, how does the dH read?
Answer: Its dH is -4.88 kcal/mol.
